This note sets out measurements from PMC8908544 (Structure (London, England : 1993), 2022).

The target in assay [1] is T1, receptor binding domain (RBD) of SARS-CoV-2 spike protein (SARS-CoV-2, UniProt P0DTC2 333-523). The assay is described as follows: BLI. In general terms: Biolayer interferometry detects binding as a change in optical thickness at a sensor tip.
Assay [2] concerns the target T1, receptor binding domain (RBD) of …. Nature of the assay: ELISA.
The target in another assay is SARS-CoV RBD (306-527) (SARS-CoV, UniProt P59594 306-527). The assay is described as follows: BLI.

B1: format II: bi-paratopic and multivalent nanobody NB1A7-(GGGGS)4-NB1B11-Fc (bispecific antibody)
chain: QVQLQESGGGSVQAGGSLRLSCAASGYTFSSYCLGWFRQAPGKEREGVAAIDSDGSTSYADSVKGRFTISRDNAKNTLYLQMNSLKPEDTAMYYCAAEGGPSLSYCTGGYGFLLSGLMYNSWGQGTQVTVSSGGGGSGGGGSGGGGSGGGGSQVQLQESGGGSVQAGGSLRLSCAASGYTVSVGCMAWFRQAPGKEREGVAGIDASGITKYSDSVKGRFTISKDNAKNALDLQMNGLKPEDTAMYHCAAGLVRGSCTDVLDHPSYLGVWGQGTQVTVSSGGGGS
Usually Kd stands for a measure of binding affinity in units of concentration. Read a low Kd as higher affinity. The term IC50 denotes the midpoint of a concentration-inhibition curve. A higher IC50 goes with a need for much substance. B1 registered a Kd in assay [1] of less than 0.001 nM. Besides, the IC50 in assay [2] amounted to 37.5 nM.

B2: NB1A7 (VHH)
VHH: QVQLQESGGGSVQAGGSLRLSCAASGYTFSSYCLGWFRQAPGKEREGVAAIDSDGSTSYADSVKGRFTISRDNAKNTLYLQMNSLKPEDTAMYYCAAEGGPSLSYCTGGYGFLLSGLMYNSWGQGTQVTVSS
Regarding B2, the affinity with SARS-CoV RBD (306-527), expressed as Kd, was 471 nM.

B3: NB1C6 (VHH)
VHH: QVQLQESGGGSVQAGGRLRLSCAASGDTYSSYCMGWFRQAPGKEREGVAAIYIGGDNTYYADSAKGRFTISQDYDKNTAYLQMNSLKSEDTAMYYCAAELFCPWPDIGTMSPAEYKYWGQGTQVTVSS
Molecule B3 gave a Kd in assay [1] of 5.07 ± 0.05 nM.

B4: NB1B11 (VHH)
VHH: QVQLQESGGGSVQAGGSLRLSCAASGYTVSVGCMAWFRQAPGKEREGVAGIDASGITKYSDSVKGRFTISKDNAKNALDLQMNGLKPEDTAMYHCAAGLVRGSCTDVLDHPSYLGVWGQGTQVTVSS
On to B4, for which the Kd in assay [1] was found to be 6.76 ± 0.027 nM. This molecule also gave an IC50 in assay [2] of 709 nM.
